B1: Erb1 (Chaetomium thermophilum ribosome assembly factor) (natural protein, UniProt G0SCK6 1-801, looked up)
chain: MGSKIVEKKRKSRDSDSESDNELGDGLFDGVLSQSEDEEDYIPSSEVDEDDDDDADESASEDSDDSNDSEDDEVEEDDEALLSDEIPSEGESEKDQDLAESKESKQDQDKEPSEPEILEPFVDPPRKEDEELEDRNYRIEKDANGGIRYVYDEIDPVYDSDDTDYNVPVNTIGNIPLSFYDSYPHIGYDINGKKIMRPATGDALQNLLDSIEVPEGWTGLTDPNTGKPLNLSRDELELIRKVQQGLIPDDVEDPYPDTVEWFTSVEEKMPLSAAPEPKRRFIPSKNEAKQIMKLVRAIREGRILPYKPPEEREREELEKEEEFYDLWQNEEPQPPNPMHIPAPKLPPPGYDLSYNPPPEYLPTKEEREEWEKMDPEDREKDYLPTKYDSLRKVPAWGNFVKERFERCMDLYLAPRVRKNRLNIDPNSLLPKLPSPDELKPFPTVQQTIFRGHEGRVRSVAIDPTGVALATGGDDGTVRVWELLTGRQVWSVKLNGDEAVNTVRWRPTKDTFILAAAAGEDIFLMIPTHPSVTPALDQASRDILNAGFGHATNGKQQANLPPGKEPPGKWARPGTRLEDEGVLLRITVRSTIKAISWHRRGDHFATVSPSGQRSSVAIHTLSKHLTQIPFRKLNGLAQTASFHPLRPLFFVATQRSIRCYDLQKLELVKIVQPGAKWISSFDVHPGGDNLVVGSYDKRLLWHDLDLSNRPYKTMRFHTEAIRAVRFHKGGLPLFADASDDGSLQIFHGKVPNDQLENPTIVPVKMLKGHKVVNKLGVLDIDWHPREPWCVSAGADGTARLWM
notes: Erb1, Chaetomium thermophilum; cloned in pET28-NKI/LIC 6His/3C; Erb1 was held on Ni-NTA biosensors; source: E. coli (DE3) BL21 CodonPlus (RIPL), auto-induction, purified (Histrap-HP Ni, HiTrap Heparin, Superdex 200 SEC)
B2: Ytm1 (Chaetomium thermophilum ribosome assembly factor) (natural protein)
chain: MDAPMEDAPAPVAQVKVIFTTTEPDLELPESKRQLLVPADIRRYGLSRILNSESMLDTGSIPFDFLINGSFLRSSLEDYLTSNGLSLETTLTLQYVRSLIPPVYEASFEHDDWVSAVDVLSATSPAGRWSSAANSSAAVQPGQERVLSASYDGLLRIWNASGSVIATSPSGSHGGHTASIKAAKFLTSDRLASAGMDRTVRVWKYTESDHFTGELKPTLELYGHTGSVDWLDVDGHSKHILTASADGAIGFWSASKASAPEPDASLLPGAHVSKRRKATSSVSTAQRGPLGLWSIHTAPATAAIFDPRDRTVAYSASQDHTVRTLDLTTGQVVSTLTLTHPLLSLSALTRAGTTSPLLAAGTSARHITMVDPRASSATTSVMTLRGHANKVVSLSPSPENEYSLVSGSHDGTCRVWDLRSVRPATKEEGSLGGVSEPVYVIERESWASKGKKKRPVAGDGCKVFSVVWDKLGIFSGGEDKKVQVNRGRNIVTEQK
notes: Ytm1, Chaetomium thermophilum; YTM1 gene amplified from total cDNA and cloned in pOPIN-F; For MST, Ytm1 was labelled with the Red-NHS second-generation dye; source: Sf9 insect cells (baculovirus), purified (Histrap-HP Ni, Superdex 200 SEC)

What was measured:
[1] = biological target: T1, Ytm1 (Thermochaetoides thermophila, UniProt G0SFB5); assay: Microscale thermophoresis of labelled Ytm1 with peptide; assay type: binding, Chaetomium thermophilum; conditions: peptide at a maximum concentration of 1,580 µM, data quality did not allow fitting of KD
T1 construct: 6xHis; made in house; host or cells: Sf9 insect cells (baculovirus)
T1 sequence (G0SFB5 1-495): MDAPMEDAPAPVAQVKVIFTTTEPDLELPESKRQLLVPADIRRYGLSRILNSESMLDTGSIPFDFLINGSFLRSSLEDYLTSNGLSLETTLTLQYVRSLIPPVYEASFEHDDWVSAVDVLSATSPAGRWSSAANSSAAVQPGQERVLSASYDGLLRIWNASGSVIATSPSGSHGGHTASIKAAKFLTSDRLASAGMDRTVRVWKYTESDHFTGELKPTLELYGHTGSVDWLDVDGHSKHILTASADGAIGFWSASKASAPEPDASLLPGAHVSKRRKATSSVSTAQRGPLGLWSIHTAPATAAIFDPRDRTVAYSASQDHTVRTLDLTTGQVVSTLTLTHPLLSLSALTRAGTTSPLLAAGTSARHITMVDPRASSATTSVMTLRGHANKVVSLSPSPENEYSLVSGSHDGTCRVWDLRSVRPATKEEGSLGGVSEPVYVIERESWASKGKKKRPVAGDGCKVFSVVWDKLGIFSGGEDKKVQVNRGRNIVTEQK
Experimental: Microscale thermophoresis (MST) was used to determine the binding affinity between Ytm1 and P1. Ytm1 was labeled with a Red-NHS second-generation dye kit (100 µl at 10 µM of protein +300 µM dye solution) for 30 min at room temperature in the dark. 5 nM of labeled Ytm1 in 50 mM HEPES pH 7.5, NaCl 150 mM supplemented with 0.1% (v/v) Pluronic F-127 was used for the assay. P1 stock is diluted in 10 mM Tris (hydroxymethyl)-methylamine (Tris-HCl), pH 8.8. Ytm1 and P1 were mixed at 1:1 molar ratio in sixteen serial dilutions (1,230 μM–0.0751 µM) using the same buffer. Measurements were taken on a Monolith NT.115 instrument (NanoTemper Technologies). Similarly biding between Ytm1 and P3 using MST was tested using the same Ytm1 buffer also for P3. Curve fitting and KD calculations every 10 min were analyzed from three independent experiments with MO. […] Curves were analyzed using Affinity Analysis Software (NanoTemper Technologies).

[2] = biological target: T2, Erb1/Ytm1 complex (Thermochaetoides thermophila, UniProt G0SFB5); assay: Biolayer interferometry peptide interference assay, immobilized Erb1, Ytm1 analyte preincubated with P1-P3; assay type: binding, Chaetomium thermophilum; conditions: BLI, 5 µM Ytm1 preincubated with equimolar peptide, reference without peptide 1.724e-3
T2 construct: 6xHis; made in house; host or cells: Ytm1: Sf9 insect cells (baculovirus); Erb1: Escherichia coli (DE3) BL21 CodonPlus (RIPL)
T2 sequence (G0SFB5 1-495): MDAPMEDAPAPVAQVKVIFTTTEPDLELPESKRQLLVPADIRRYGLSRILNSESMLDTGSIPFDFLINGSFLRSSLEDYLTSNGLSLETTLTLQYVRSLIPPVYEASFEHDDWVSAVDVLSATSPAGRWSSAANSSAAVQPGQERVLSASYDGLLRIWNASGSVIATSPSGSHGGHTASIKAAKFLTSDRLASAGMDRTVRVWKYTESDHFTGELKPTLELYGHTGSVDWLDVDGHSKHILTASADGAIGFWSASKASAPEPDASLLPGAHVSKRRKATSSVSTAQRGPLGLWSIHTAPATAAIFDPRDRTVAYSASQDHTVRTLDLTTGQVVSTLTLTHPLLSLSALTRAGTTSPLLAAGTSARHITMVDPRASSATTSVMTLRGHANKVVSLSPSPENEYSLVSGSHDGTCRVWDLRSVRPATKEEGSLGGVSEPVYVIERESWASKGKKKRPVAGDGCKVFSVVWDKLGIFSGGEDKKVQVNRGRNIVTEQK
Experimental: Peptides were commercially obtained from Synpeptide Co., Ltd., Shanghai, China. All experiments have been made in triplicates and include control curves for bait and analyte only.
Potential interference peptide samples were evaluated by their ability to interfere the kinetics and affinity of the complex between Erb1 and Ytm1 as measured by Biolayer Interferometry (BLItz, Pall FortéBio Corp.) using Ni-NTA biosensors (FortéBio) and 50 mM HEPES, pH 7.5; 150 mM NaCl; 5% (v/v) glycerol; and 2 mM β-mercaptoethanol (BME) buffer. To set the reference KD, an 80 µg/ml solution of Erb1 was immobilized to the biosensor in order to obtain binding curves for increasing concentrations of Ytm1. According to this, an evaluation of Erb1-derived peptides (P1–P3) was performed using 5 µM Ytm1 previously incubated during 30 min at equimolar concentrations of each peptide. New KD values were determined. […]
Biolayer interferometry interference assays were used to evaluate the ability of each peptide to interfere in the in vitro formation of the Erb1/Ytm1 complex. […] Peptides were evaluated for their ability to decrease in the Erb1/Ytm1 complex formation by preincubating the analyte with each peptide derived from the immobilized partner. […] Erb1-derived peptides were evaluated by their ability to decrease Erb1/Ytm1 complex affinity. […]

[3] = biological target: T1, Ytm1; assay: Differential scanning fluorimetry (thermofluor) of Ytm1 with peptide; assay type: binding, Chaetomium thermophilum; conditions: DSF, SYPRO Orange 1:1,000; 5 µM Ytm1, 1 mM peptide; 50 mM HEPES pH 7.5, 150 mM NaCl; 20-85°C at 1°C/min; triplicates
Experimental: Thermofluor assays ([Pantoliano et al., 2001]) were performed on a 7,500 Fast Real-Time PCR System (Applied Biosystems) measuring the gradual fluorescence generated by a 1:1,000 dilution of SYPRO Orange Protein Stain Gel (Supelco, Merck-Sigma) along with 1°C/min temperature increase from 20°C until 85°C.
The samples were mixed containing the protein Ytm1 at 5 µM in 50 mM HEPES pH 7.5, 150 mM NaCl and peptides P1-P3 at 1 mM concentration. Previously, lyophilized P2 and P3 were resuspended in the same Ytm1 buffer and P1 was solubilized in 10 mM Tris (hydroxymethyl)-methylamine (Tris-HCl), pH 8.8 for P1. Data of triplicated experiments were analyzed using GraphPad Prism 5.01 software.

[4] = biological target: B2; assay: BLI; interference assay; Ytm1 (80 µg/ml) immobilised on Ni-NTA biosensor; 20 µM Erb1 preincubated with equimolar Ytm1-derived peptide (P4-P6) as analyte; 50 mM HEPES pH 7.5, 150 mM NaCl, 5% glycerol, 2 mM BME; conditions: both partners purified
[5] = biological target: B1; assay: BLI; BLItz; Erb1 (80 µg/ml) immobilised on Ni-NTA biosensor, increasing concentrations of Ytm1 as analyte; 50 mM HEPES pH 7.5, 150 mM NaCl, 5% glycerol, 2 mM BME; reference without peptide; conditions: both partners purified
[6] = biological target: B1; assay: BLI; BLItz; Ytm1 (80 µg/ml) immobilised on Ni-NTA biosensor, Erb1 as analyte; 50 mM HEPES pH 7.5, 150 mM NaCl, 5% glycerol, 2 mM BME; reference without peptide; conditions: both partners purified
[7] = biological target: B1; assay: BLI; interference assay; Erb1 (80 µg/ml) immobilised on Ni-NTA biosensor; 5 µM Ytm1 preincubated 30 min with equimolar Erb1-derived peptide (P1-P3) as analyte; 50 mM HEPES pH 7.5, 150 mM NaCl, 5% glycerol, 2 mM BME; conditions: both partners purified

## DWHPREPWCV [Peptide P3, Erb1-derived peptide …, residues 780–789]
[1]
  Binding to Ytm1 by MST (in words): tendency toward binding
[2]
  kd (1/s) of Erb1/Ytm1 binding after preincubation of Ytm1 with peptide: 0.01238 s⁻¹
[3]
  Thermal shift (Tm) of Ytm1 in the presence of peptide: did not show any significant thermal shift

## B1
[4]
  KD after preincubation of Erb1 with equimolar P6: 2400 nM

## B2
[5]
  Kd: 32.3 nM
[6]
  Kd: 229 nM
[7]
  KD after preincubation of Ytm1 with equimolar P1: 190 nM
  KD after preincubation of Ytm1 with equimolar P3: 170 nM
